Results from patent US11534478B2, “Compositions and methods for treating cancer” (Biokine Therapeutics Ltd., priority 2015, dated 2022).
Where a SMILES comes first, the peptide text is derived from it. Bridges are numbered along the chain shown (N, C = ends). [ ]: non-standard residue; d: D form. The star is where a group is joined. 2Nal = N[C@@H](Cc1ccc2ccccc2c1)C(=O)O; Benzoyl(4-F) = O=C(c1ccc(F)cc1)*; Cit = NC(=O)NCCC[C@H](N)C(=O)O

Legend:
[1] = target: KIR2DL3 (Homo sapiens, UniProt P10321+P43628); details: cited from earlier work
KIR2DL3, sequence (P43628 22-341): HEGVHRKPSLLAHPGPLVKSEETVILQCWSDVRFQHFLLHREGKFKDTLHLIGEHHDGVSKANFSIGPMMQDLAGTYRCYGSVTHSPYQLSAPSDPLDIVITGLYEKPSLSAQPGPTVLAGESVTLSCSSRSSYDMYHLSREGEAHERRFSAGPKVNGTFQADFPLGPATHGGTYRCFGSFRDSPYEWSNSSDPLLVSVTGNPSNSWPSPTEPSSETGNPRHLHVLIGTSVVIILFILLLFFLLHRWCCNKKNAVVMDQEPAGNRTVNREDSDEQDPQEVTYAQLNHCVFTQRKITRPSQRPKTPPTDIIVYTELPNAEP
KIR2DL3, sequence (P10321 25-366): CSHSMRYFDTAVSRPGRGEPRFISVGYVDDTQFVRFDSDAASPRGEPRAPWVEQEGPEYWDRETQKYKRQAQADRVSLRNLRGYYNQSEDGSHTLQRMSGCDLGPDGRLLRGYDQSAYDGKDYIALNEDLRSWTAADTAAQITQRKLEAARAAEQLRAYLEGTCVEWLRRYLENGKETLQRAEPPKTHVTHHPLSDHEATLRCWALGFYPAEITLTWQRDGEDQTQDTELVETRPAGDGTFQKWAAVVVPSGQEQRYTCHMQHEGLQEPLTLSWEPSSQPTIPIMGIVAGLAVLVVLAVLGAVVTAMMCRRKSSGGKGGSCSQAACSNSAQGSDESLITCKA
KIR2DL3, sequence (P61769 21-119 partner): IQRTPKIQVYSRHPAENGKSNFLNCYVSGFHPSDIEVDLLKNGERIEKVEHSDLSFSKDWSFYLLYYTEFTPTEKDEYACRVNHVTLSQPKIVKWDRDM

[2] = target: T1, ID02 (Homo sapiens, UniProt Q6ZQW0); details: D isomer; cited from earlier work
T1 sequence (Q6ZQW0 1-407): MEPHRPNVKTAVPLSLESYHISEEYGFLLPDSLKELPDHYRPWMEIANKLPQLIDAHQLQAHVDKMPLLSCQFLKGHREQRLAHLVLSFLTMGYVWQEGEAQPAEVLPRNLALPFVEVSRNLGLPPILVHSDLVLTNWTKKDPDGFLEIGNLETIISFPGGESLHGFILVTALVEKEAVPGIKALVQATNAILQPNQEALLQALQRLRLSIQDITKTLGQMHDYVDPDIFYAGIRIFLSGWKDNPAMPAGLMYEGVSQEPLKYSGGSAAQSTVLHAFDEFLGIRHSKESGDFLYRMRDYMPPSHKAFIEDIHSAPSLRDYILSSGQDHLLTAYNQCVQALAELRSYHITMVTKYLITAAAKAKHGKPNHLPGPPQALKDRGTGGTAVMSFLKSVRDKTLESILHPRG

[3] = in vivo

In the case of VAPWSNDYL, the “inhibition of KIR2DL3” value [1] is given as “inhibitors of KIR2DL3”.
For `Cn1cc(C[C@H](N)C(=O)O)c2ccccc21` [Analog 1-MT, 1-methyl tryptophan], the “specificity for ID02” value [2] is given as “more specific for ID02”.
With `N=C(N)NCCC[C@H](NC(=O)[C@@H]1CSSC[C@H](NC(=O)[C@H](Cc2ccc3ccccc3c2)NC(=O)[C@H](CCCNC(=N)N)NC(=O)[C@H](CCCNC(=N)N)NC(=O)c2ccc(F)cc2)C(=O)N[C@@H](Cc2ccc(O)cc2)C(=O)N[C@@H](CCCNC(N)=O)C(=O)N[C@@H](CCCCN)C(=O)N[C@H](CCCCN)C(=O)N2CCC[C@H]2C(=O)N[C@@H](Cc2ccc(O)cc2)C(=O)N[C@@H](CCCNC(=N)N)C(=O)N[C@@H](CCCNC(N)=O)C(=O)N1)C(N)=O` [BL-8040, 4F-benzoyl-Arg-Arg-Nal-Cys-Tyr-Cit-Lys-DLys-Pro-Tyr-Arg-Cit-Cys-Arg-NH2] ({Benzoyl(4-F)}-RR[2Nal]CY[Cit]K[dK]PYR[Cit]CR-NH2; disulfide 4-13 (inferred)) the safety and tolerability [3] was “safe and well tolerated”.
For VAPWNDAL, the “inhibition of KIR2DL3” value [1] is given as “inhibitors of KIR2DL3”.
